Source: publication PMC7031210

Target: T1, RecA (B. subtilis) (UniProt P16971)
T1 sequence: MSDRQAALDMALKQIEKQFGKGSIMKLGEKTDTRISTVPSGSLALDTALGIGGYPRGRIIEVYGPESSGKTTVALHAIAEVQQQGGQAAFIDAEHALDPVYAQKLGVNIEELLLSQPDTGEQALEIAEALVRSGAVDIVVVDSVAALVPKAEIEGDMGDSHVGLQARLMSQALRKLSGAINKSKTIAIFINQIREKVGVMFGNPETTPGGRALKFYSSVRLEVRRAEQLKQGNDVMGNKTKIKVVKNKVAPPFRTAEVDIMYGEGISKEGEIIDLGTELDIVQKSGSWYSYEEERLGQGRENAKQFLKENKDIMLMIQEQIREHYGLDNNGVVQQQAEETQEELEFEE

B1: RarA K51A (enzyme)
chain: MKPLAYRMRPTKIEDIIGQQHLVAEDKIIGRMVQAKHLSSMILYGPPGIGATSIATAIAGSTSIAFRKLNAVINNKKDMEIVAQEAKMSGQVILILDEVHRLDKGKQDFLLPYLENGMIILIGATTANPYHAINPAIRSRTQIFELEPLTPELIKQALERALHDEHRGLGTYSVSIDDQAMEHFAHGCGGDVRSALNALELAVLSTKESADGEIHITLETAEECLQKKSFSHDKDGDAHYDVLSAFQKSIRGSDANAALHYLARLIEAGDLESIARRLLVIAYEDIGLASPQAGPRVLNAIQTAERVGFPEARIPLANAVIELCLSPKSNSAILAIDEALADIRAGKIGDVPKHLKDAHYKGAQELGRGIDYKYPHNYDNGWVEQQYLPDPLKNKQYYKPKQTGKFESALKQVYDKLMKRK
maximal rate of ssDNA-dependent ATP hydrolysis of RecA (650 nM) in the presence of RarA K51A (100 nM), coupled spectrophotometric ATPase assay, 5 mM ATP, 30 min at 37°C: 8.8 min⁻¹
